Results taken from patent publication US8647613B2, “Drug carrier” (JCR Pharmaceuticals Co., Ltd., priority 2005, dated 2014).

B1: Catalase (from bovie liver): model protein, 232 kDa (protein, UniProt P00432 2-527, looked up)
Catalase: ADNRDPASDQMKHWKEQRAAQKPDVLTTGGGNPVGDKLNSLTVGPRGPLLVQDVVFTDEMAHFDRERIPERVVHAKGAGAFGYFEVTHDITRYSKAKVFEHIGKRTPIAVRFSTVAGESGSADTVRDPRGFAVKFYTEDGNWDLVGNNTPIFFIRDALLFPSFIHSQKRNPQTHLKDPDMVWDFWSLRPESLHQVSFLFSDRGIPDGHRHMNGYGSHTFKLVNANGEAVYCKFHYKTDQGIKNLSVEDAARLAHEDPDYGLRDLFNAIATGNYPSWTLYIQVMTFSEAEIFPFNPFDLTKVWPHGDYPLIPVGKLVLNRNPVNYFAEVEQLAFDPSNMPPGIEPSPDKMLQGRLFAYPDTHRHRLGPNYLQIPVNCPYRARVANYQRDGPMCMMDNQGGAPNYYPNSFSAPEHQPSALEHRTHFSGDVQRFNSANDDNVTQVRTFYLKVLNEEQRKRLCENIAGHLKDAQLFIQKKAVKNFSDVHPEYGSRIQALLDKYNEEKPKNAVHTYVQHGSHLSAREKANL

Experiments:
[1] = Hydrolysis of compound 28 in the liposome at low pH (thin layer chromatography); format: physicochemical; details: PBS pH 4.5, 37° C., 24 hours, liposome 3/4/3/0.03
Method: The prepared liposome (DOPC/chol/(28)/PEG-DPE=3/4/3/0.03, molar ratio) was dispersed in PBS of pH 4.5 at 37° C., and the dispersion was lyophilized 24 hours later. The dried mixed lipid powder was dissolved in chloroform and detected by thin layer chromatography (silica gel plate, chloroform/methanol (8/1) (volume/volume) detection: iodine).

[2] = cited from earlier work; for Isoelectric point: Table 2; for Isoelectric point (-): Table 5

Molecule	hydrolysis in the liposome at low pH [1]	Isoelectric point [2]	Isoelectric point (-) [2]
CCCCCCCCCCCCCCCCOC(=O)CCC(NC(=O)C(N)CCC(=O)O)C(=O)OCCCCCCCCCCCCCCCC (centres unmarked) [compound 28]	hydrolyzed		
Ferritin		4.0-5.0	4.0-5.0
Thyrogrobulin: model protein, 670 kDa		4.5	4.5
α-Lactalbumin: model protein, molecular weight 14 kDa		4.1-4.8	4.1-4.8
B1			5.5
